Substrate in this data set: CN(C)CCCNC(=O)c1cc(SSc2ccc([N+](=O)[O-])c(C(=O)NCCCN(C)C)c2)ccc1[N+](=O)[O-]
Kind of data set: purified protein, by the assay type. Particulars: other: substrate of recombinant TcTR, 25° C., buffer A pH 7.25, 0.2 mM NADPH, * = estimated at low substrate concentrations (15-200 μM), inhibition effects.

Drawing on US20030175848A1, “Substituted dithiobisnitrobenzenes and their applications” (Institut Pasteur De Lille, priority 1998, published 2003), this text covers Km, kcat and kcat/Km for one protein.

Description: The TcTR concentration is determined by measuring the number of subunits containing FAD at 461 nm (ε=11.3 mM^−1×cm^−1); the enzymatic activity is tested as specified in (28). One TR unit corresponds to 1 μmol of T(S)2 reduced per minute at 25° C. in a buffer A (20 mM Hepes, pH 7.25 containing 1 mM EDTA and 0.15 M KCl).
The enzyme stock solutions used for the kinetic determinations are pure (verification in SDS-PAGE) and have a specific activity of 137 U/mg in the T(S)2 reduction test performed in the presence of 500 μM NADPH and 518 μM T(S)2 in a buffer A.
All the kinetic studies are carried out in the same buffer at 25° C., in the presence of 200 μM of NADPH.
All the tests were carried out at 25° C. in 20 mM HEPES, 1 Mm EDTA, 150 mM KCl, at pH 7.25 (buffer A) and in the presence of 0.2 mM NADPH.

B1: trypanothione reductase from Trypanosoma cruzi (TcTR) (Trypanosoma cruzi) (protein)
chain: MMSKIFDLVVIGAGSGGLEAAWNAATLYKKRVAVIDVQMVHGPPFFSALGGTCVNVGCVPKKLMVTGAQYMEHLRESAGFGWEFDRTTLRAEWKKLIAVKDEAVLNINKSYEEMFRDTEGLEFFLGWGSLESKNVVNVRESADPASAVKERLETENILLASGSWPHMPNIPGIEHCISSNEAFYLPEPPRRVLTVGGGFISVEFAGIFNAYKPKDGQVTLCYRGEMILRGFDHTLREELTKQLTANGIQILTKENPAKVELNADGSKSVTFESGKKMDFDLVMMAIGRSPRTKDLQLQNAGVMIKNGGVQVDEYSRTNVSNIYAIGDVTNRVMLTPVAINEAAALVDTVFGTNPRKTDHTRVASAVFSIPPIGTCGLIEEVASKRYEVVAVYLSSFTPLMHNISGSKYKTFVAKIITNHSDGTVLGVHLLGDNAPEIIQGVGICLKLNAKISDFYNTIGVHPTSAEELCSMRTPSYYYVKGEKMEKPSEASL
Broadly, the Km is the concentration of substrate that gives half-maximal velocity. Usually kcat stands for the maximal rate divided by the concentration of active sites. Broadly, the kcat/Km is the second-order rate constant that governs catalysis at low substrate concentration. Regarding B1, the Km was 35 µM, the kcat was 125 s⁻¹ and the kcat/Km was 3.6e+06 M⁻¹ s⁻¹.
